{"source": "patent US12379386B2", "about": "“Antibodies to 25-hydroxyvitamin D2 and D3 for detecting total 25-hydroxyvitamin D” (Siemens Healthcare Diagnostics Inc., priority 2011, dated 2025)", "molecules": {"B1": {"name": "10H9: murine monoclonal antibody from the 10H9 hybridoma, raised against vitamin D-C22 BSA; binds 25-hydroxyvitamin D2 and D3 (antibody, V domains shown)", "VH": "VQLLESGPELVKPGASMKISCKASGYSFTDYTMNWVKQSHGKNLEWIGLINPYNGFTIYNQKFKGKATLTVDKSSSTAYMELLSLTSEDSAVYYFIRAHYDGRVFWGQGTTLTVSS", "VL": "CELVMTQSPLSLPVSLGDQASVSCRSSQSLVHSNGNTYLHRYLQKPGQSPKLLIYQVSNRFSGVPDRFSGSGSGTDFTLKITRVEAEDLGVYFCSQITHFPPTFGGGTKLEIKR", "modifications": "Description of Unknown: 10H9 monoclonal antibody heavy chain variable region polypeptide; Description of Unknown: 10H9 monoclonal antibody light chain variable region polypeptide"}}, "assay_type_in_all_cases": "binding", "key": {"[1]": {"experiment": "Antibody displacement assay, 10H9 supernatant, competitor 25-hydroxyvitamin D2", "settings": "for optical density at 450 nm: 25 OH-D2 0.4 μg/mL, coat Vit D C22-Diaminobutane-Suberoyl-KLH 50 ng/mL", "procedure": "(§1) Following isolation of hybridoma clones, studies were conducted to determine the relative ability of the antibodies to bind to both 25-hydroxyvitamin D2 and 25-hydroxyvitamin D3. To assess this, antibody displacement assays were conducted to determine the degree to which binding between vitamin D-C22 BSA and a reactive antibody raised against the antigen (10H9) could be disrupted by the presence of 25-hydroxyvitamin D2 or 25-hydroxyvitamin D3. Cell culture supernatant from the 10H9 hybridoma cell lines producing antibodies reactive to vitamin D-C22 BSA were coincubated in the presence or absence of 25-hydroxyvitamin D2 or 25-hydroxyvitamin D3 on microtiter plates coated with vitamin D-C22 KLH for 1 hour. After washing the plates, goat anti-mouse IgG-HRPO was added and incubated for 30 minutes. Plates were washed and then incubated with tetramethyl benzidine (TMB). The generated color was stopped using 1N sulfuric acid and the optical density was measured at 450 nm."}, "[2]": {"experiment": "Displacement assay with purified coated 10H9 and alkaline phosphatase tracer, competitor 25-hydroxyvitamin D3", "settings": "for optical density at 405 nm: MAb coat 1 ug/mL", "procedure": "(§2) Next, displacement experiments were conducted using purified antibody, rather than cell supernatant. In this experiment, the antibody of interest was coated directly on the microtiter plate via a two-hour incubation. Coated plates were washed and then coincubated with either 25-hydroxyvitamin D2 or 25-hydroxyvitamin D3 in the presence of alkaline phosphatase-conjugated vitamin D-C22 BSA. After 30 minutes the plates were washed and color was developed by adding the substrate p-nitrophenyl phosphate (PNPP). Optical density colored solution was measured at 405 nm."}, "[3]": {"test_system": "Vit D C22-Diaminobutane-Suberoyl-KLH", "experiment": "10H9 hybridoma supernatant ELISA on coated plate, no competing antigen", "settings": "Ag 0, coat 50 ng/mL", "procedure": "as §1"}, "[4]": {"experiment": "Displacement assay with purified coated 10H9 and alkaline phosphatase tracer, competitor 25-hydroxyvitamin D2", "settings": "for optical density at 405 nm: MAb coat 1 ug/mL", "procedure": "as §2"}, "[5]": {"experiment": "Antibody displacement assay, 10H9 supernatant, competitor 25-hydroxyvitamin D3", "settings": "for optical density at 450 nm: 25 OH-D3 0.4 μg/mL, coat Vit D C22-Diaminobutane-Suberoyl-KLH 50 ng/mL", "procedure": "as §1"}}}
{"molecule": "B1", "values": [{"measurement": "disruption of antibody binding by coincubation", "setting": "[1]; 10H9 supernatant, 25-hydroxyvitamin D2", "result": "disrupted in a concentration-dependent manner"}, {"measurement": "optical density at 450 nm", "setting": "[1]; supernatant dilution 1:4", "result": 0.323}, {"measurement": "optical density at 450 nm", "setting": "[1]; supernatant dilution 1:16", "result": 0.154}, {"measurement": "optical density at 450 nm", "setting": "[1]; supernatant dilution 1:64", "result": 0.097}, {"measurement": "optical density at 450 nm", "setting": "[1]; supernatant dilution 1:256", "result": 0.086}, {"measurement": "optical density at 405 nm", "setting": "[2]; 25OH-VIT D3 0 ng/ml", "result": 1.213}, {"measurement": "optical density at 405 nm", "setting": "[2]; 25OH-VIT D3 5 ng/ml", "result": 1.083}, {"measurement": "optical density at 405 nm", "setting": "[2]; 25OH-VIT D3 10 ng/ml", "result": 0.800}, {"measurement": "optical density at 405 nm", "setting": "[2]; 25OH-VIT D3 25 ng/ml", "result": 0.519}, {"measurement": "optical density at 405 nm", "setting": "[2]; 25OH-VIT D3 100 ng/ml", "result": 0.115}, {"measurement": "optical density at 405 nm", "setting": "[2]; 25OH-VIT D3 200 ng/ml", "result": 0.089}, {"measurement": "optical density at 405 nm", "setting": "[2]; 25OH-VIT D3 400 ng/ml", "result": 0.077}, {"measurement": "optical density at 405 nm", "setting": "[2]; 25OH-VIT D3 1000 ng/ml", "result": 0.069}, {"measurement": "disruption of 10H9 binding to vitamin D-C22 BSA by coincubation", "setting": "[2]; purified antibody, 25-hydroxyvitamin D3", "result": "disrupted in a concentration-dependent manner"}, {"measurement": "optical density at 450 nm", "setting": "[3]; supernatant dilution 1:4", "result": 1.997}, {"measurement": "optical density at 450 nm", "setting": "[3]; supernatant dilution 1:16", "result": 1.244}, {"measurement": "optical density at 450 nm", "setting": "[3]; supernatant dilution 1:64", "result": 0.672}, {"measurement": "optical density at 450 nm", "setting": "[3]; supernatant dilution 1:256", "result": 0.313}, {"measurement": "optical density at 405 nm", "setting": "[4]; 25OH-VIT D2 0 ng/ml", "result": 1.277}, {"measurement": "optical density at 405 nm", "setting": "[4]; 25OH-VIT D2 5 ng/ml", "result": 1.189}, {"measurement": "optical density at 405 nm", "setting": "[4]; 25OH-VIT D2 10 ng/ml", "result": 1.007}, {"measurement": "optical density at 405 nm", "setting": "[4]; 25OH-VIT D2 25 ng/ml", "result": 0.771}, {"measurement": "optical density at 405 nm", "setting": "[4]; 25OH-VIT D2 100 ng/ml", "result": 0.106}, {"measurement": "optical density at 405 nm", "setting": "[4]; 25OH-VIT D2 200 ng/ml", "result": 0.080}, {"measurement": "optical density at 405 nm", "setting": "[4]; 25OH-VIT D2 400 ng/ml", "result": 0.069}, {"measurement": "optical density at 405 nm", "setting": "[4]; 25OH-VIT D2 1000 ng/ml", "result": 0.063}, {"measurement": "disruption of 10H9 binding to vitamin D-C22 BSA by coincubation", "setting": "[4]; purified antibody, 25-hydroxyvitamin D2", "result": "disrupted in a concentration-dependent manner"}, {"measurement": "disruption of antibody binding by coincubation", "setting": "[5]; 10H9 supernatant, 25-hydroxyvitamin D3", "result": "disrupted in a concentration-dependent manner"}, {"measurement": "optical density at 450 nm", "setting": "[5]; supernatant dilution 1:4", "result": 0.384}, {"measurement": "optical density at 450 nm", "setting": "[5]; supernatant dilution 1:16", "result": 0.176}, {"measurement": "optical density at 450 nm", "setting": "[5]; supernatant dilution 1:64", "result": 0.105}, {"measurement": "optical density at 450 nm", "setting": "[5]; supernatant dilution 1:256", "result": 0.090}]}
